Data published in patent publication US20120252698.

System: T1, PhosFluor (the fluorescent protein having the amino acid sequence set forth in SEQ ID NO: 10)
T1 sequence: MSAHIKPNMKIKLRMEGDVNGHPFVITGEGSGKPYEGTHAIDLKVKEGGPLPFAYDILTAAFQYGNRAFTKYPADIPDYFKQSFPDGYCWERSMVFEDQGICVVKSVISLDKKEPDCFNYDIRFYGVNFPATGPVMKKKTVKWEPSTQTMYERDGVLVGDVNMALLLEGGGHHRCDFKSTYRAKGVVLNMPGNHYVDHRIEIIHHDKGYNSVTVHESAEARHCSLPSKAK

Sequence of Akt1 (P31749 whole entry): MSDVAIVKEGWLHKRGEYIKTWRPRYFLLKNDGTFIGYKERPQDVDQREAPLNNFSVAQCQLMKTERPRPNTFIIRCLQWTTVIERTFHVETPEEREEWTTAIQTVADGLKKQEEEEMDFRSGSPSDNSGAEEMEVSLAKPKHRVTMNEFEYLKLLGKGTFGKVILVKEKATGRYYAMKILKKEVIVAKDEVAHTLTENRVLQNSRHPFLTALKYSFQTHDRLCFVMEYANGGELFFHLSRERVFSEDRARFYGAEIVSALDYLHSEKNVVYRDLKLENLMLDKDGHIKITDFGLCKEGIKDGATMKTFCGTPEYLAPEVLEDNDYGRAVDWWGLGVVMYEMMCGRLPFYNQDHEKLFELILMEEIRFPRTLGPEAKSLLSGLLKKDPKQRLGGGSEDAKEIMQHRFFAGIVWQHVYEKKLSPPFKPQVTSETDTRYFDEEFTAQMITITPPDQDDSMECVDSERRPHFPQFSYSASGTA

| Substance | Western blot analyses of phosphorylation | emission spectrum of PhosFluor | also measured |
| --- | --- | --- | --- |
| Akt1 | serine and threonine sites on PhosFluor are phosphorylated by PKA, PKC, mitogen-activated protein kinase (MAPK), cell division control protein 2 (cdc2), and Akt1 | A marked shift in the emission spectrum of PhosFluor was observed when this molecule was incubated with PKA, PKC or Akt1 | excitation spectrum of PhosFluor: the excitation spectrum of PhosFluor was dramatically altered upon phosphorylation by different protein kinases, including Akt1 |
| PKA | serine and threonine sites on PhosFluor are phosphorylated by PKA, PKC, mitogen-activated protein kinase (MAPK), cell division control protein 2 (cdc2), and Akt1 | A marked shift in the emission spectrum of PhosFluor was observed when this molecule was incubated with PKA, PKC or Akt1 | upward shift of apparent molecular weight on SDS-PAGE: To a lesser extent, higher molecular weight species were also observed upon phosphorylation by PKA |
| Src | – | – | SDS-PAGE and immunoblot of PhosFluor incubated with kinase (total protein, phospho-tyrosine, mobility shift): PhosFluor is an avid substrate for PKC and Src |
| alkaline phosphatase | – | – | fluorescence intensity of PhosFluor over time: This treatment virtually abolished the increase in fluorescence intensity of PhosFluor over time |
| cell division control protein 2 (cdc2) | serine and threonine sites on PhosFluor are phosphorylated by PKA, PKC, mitogen-activated protein kinase (MAPK), cell division control protein 2 (cdc2), and Akt1 | – | fluorescence intensity of PhosFluor incubated with kinase: The fluorescence intensity of PhosFluor also increased above background levels when the protein was incubated with cdc2 and MAPK (data not shown) |
| mitogen-activated protein kinase (MAPK) | serine and threonine sites on PhosFluor are phosphorylated by PKA, PKC, mitogen-activated protein kinase (MAPK), cell division control protein 2 (cdc2), and Akt1 | – | fluorescence intensity of PhosFluor incubated with kinase: The fluorescence intensity of PhosFluor also increased above background levels when the protein was incubated with cdc2 and MAPK (data not shown) |
| protein kinase C (PKC) | serine and threonine sites on PhosFluor are phosphorylated by PKA, PKC, mitogen-activated protein kinase (MAPK), cell division control protein 2 (cdc2), and Akt1 | A marked shift in the emission spectrum of PhosFluor was observed when this molecule was incubated with PKA, PKC or Akt1 | SDS-PAGE and immunoblot of PhosFluor incubated with kinase (total protein, phospho-tyrosine, mobility shift): PhosFluor is an avid substrate for PKC and Src; upward shift of apparent molecular weight on SDS-PAGE: when phosphorylated by PKC, multiple higher molecular weight species of PhosFluor were resolved by SDS-PAGE |
